We go through eight molecules from US20140154255A1 (AbbVie / Abbott, published 2014).

Assay [1] has as its target T1, VEGF (R&D systems, Minneapolis, Minn.) (UniProt P15692-4 27-191, limits assumed). Description: BIAcore SPR, improvement over WT. The procedure:
(§1) RL was kept low to minimize avidity due to the dimeric nature of VEGF. No capture of the antibody was made on the reference surface to serve as a negative control. Subsequently, VEGF was injected to all flow cells at a flow rate of 50 μL/min for two minutes to monitor association followed by a 25-minute flow of HBS-P running buffer (10 mM HEPES, 150 mM sodium chloride, 0.005% P-20, pH 7.4) to monitor the dissociation phase. At each cycle, VEGF, in 6 different concentrations of VEGF ranging between 0 nM and 512 nM and at four-fold increments, was injected over the surface. […] Binding data were fit to the 1:1 Langmuir model to extract binding constants from the BIAevaluate software. Double referencing was applied in each analysis to eliminate background responses from the reference surface and buffer only control. All the binding kinetics data were analyzed at least three separate determinations.
Background: In SPR one partner is held on a chip, and binding of the other changes the refractive index at the surface.

Assay [2] addresses T1, VEGF (R&D systems, Minneapolis, Minn.). Description: BIAcore SPR. The method, then: as §1
Assay [3] has the same target. Description: BIAcore SPR, WT/mutant. The procedure:
as §1

Assay [4] shares this target. Description: BIAcore SPR, mutant/WT. The method, then:
as §1

Assay [5] has as its target T2, unlabeled human VEGF (ELISA coat) (human, UniProt P15692-4 27-191, limits assumed). As to the kind of experiment: ELISA 1 hr, EC50 WT/EC50 mutant. The method, then:
(§2) To detect identified variants binding to antigen, ELISA plates (Nunc-Immuno MaxiSorp plates, Nalge Nunc, Rochester, N.Y.) were coated overnight at 4° C. with unlabeled human VEGF at 1 μg/mL in 0.2 M sodium carbonate-bicarbonate buffer (pH 9.4, Pierce, Rockford, Ill.). The plates were then blocked with SuperBlock Blocking Buffer (Pierce, Rockford, Ill.) for 30 min and washed with Washing Buffer (PBS containing 0.1% Tween 20). All the washing steps were performed for three times. […] The plates were washed and 100 μL of goat anti-human kappa HRP-conjugated antibody (Southern Biotech, Birmingham, Ala.) diluted at 1:1000 in ELISA buffer was added to each well. After 30 minutes of incubation, plates were washed and bound antibodies were detected by addition of TMB 1 Component HRP Microwell substrate (BioFx #TMBW-1000-01). The reaction was terminated by addition of 100 μL/well of 650 nM Stop Reagent for TMB Microwell substrate and the absorbance was measured at 650 nm using a VERSAmax microplate reader (Molecular Devices, Sunnyvale, Calif.). Data were fitted using nonlinear regression with the software […]
In general terms: In an ELISA, binding on a coated surface is turned into a signal by an enzyme label.

In assay [6] the target is T2, unlabeled human VEGF (ELISA coat). As to the kind of experiment: ELISA overnight, EC50 WT/EC50 mutant. The procedure:
as §2

Assay [7] has as its target T3, human VEGF-A residues 27-191 of Accession #AAV38412 (human, UniProt P15692 27-191).
T3 construct: range 27-191
As to the kind of experiment: BIAcore SPR, KD WT/KD mutant. The procedure: (§3) The binding kinetics and affinity of the antibodies for VEGF (human VEGF-A residues 27-191 of Accession #AAV38412) was determined by using a BIAcore T200 surface plasmon resonance system (BIAcore, GE Healthcare, Piscataway, N.J.). Coupling running buffer was HBS-EP+ running buffer (10 mM HEPES, 150 mM sodium chloride, 3 mM EDTA 0.05% P-20, pH 7.4); assay running buffer was HBS-EP+ with 300 mM sodium chloride and 0.1 mg/mL BSA (Sigma A7906). Polyclonal goat anti-human Fc (Thermo Scientific prod#31125) was first immobilized to the biosensor surface in 10 mM sodium acetate, pH 4.5 using standard BIAcore amine coupling reagents (N-ethyl-N′-dimethylamino-propylcarbodiimide, EDC; N-hydroxysuccinimide, NHS; and ethanolamine HCl, pH 8.5). For binding kinetics assay a series of cycles were performed, each cycle consisted of 1) mAb capture, 2) Ag or buffer injection, 3) dissociation phase and 4) regeneration. Briefly, anti-VEGF antibodies were captured on parallel surfaces at a low flow rate of 10 μL/min. Capture levels were kept low to minimize avidity due to the dimeric nature of VEGF. No capture of the antibody was made on the reference surface to serve for primary referencing and as a negative control. Subsequently, VEGF or buffer only was injected to all flow cells at a flow rate of 80 μL/min for three minutes to monitor association followed by a 20-minute flow of assay rinning buffer at a flow rate of 80 μL/min to monitor dissociation. […] At the end of each cycle the surface was regenerated with 10 mM glycine, pH 1.5 at a flow rate of 60 μL/min in pulses of 60 and 10 sec. Binding data were fit to the 1:1 Langmuir model with mass transport term included using Biacore T200 Evaluation Software to determine the binding constants.

Assay [8] deals with T3, human VEGF-A residues 27-191 of …. As to the kind of experiment: BIAcore SPR. The method, then:
as §3

T2 sequence (P15692 other isoform, or with tags, fused parts or gaps limits assumed): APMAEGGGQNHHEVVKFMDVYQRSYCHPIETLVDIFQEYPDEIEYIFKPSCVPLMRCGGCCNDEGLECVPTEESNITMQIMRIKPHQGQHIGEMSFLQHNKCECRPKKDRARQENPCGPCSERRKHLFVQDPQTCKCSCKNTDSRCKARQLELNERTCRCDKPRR
T1 sequence (P15692 other isoform, or with tags, fused parts or gaps limits assumed): as above
T3 sequence (P15692 other isoform, or with tags, fused parts or gaps limits assumed): as above

B1: 87 (antibody, human IgG1, V domains shown)
VH: EVQLVESGGGLVQPGGSLRLSCAASGYTFTFYGMNWVRQAPGKGLEWVGWINTYTGEPTYAADFKRRFTFSLDTSKSTAYLQMNSLRAEDTAVYYCAKYPEYDGGSHWYFDVWGQGTLVTVSS
VL: DIQMTQSPSSLSASVGDRVTITCSASQDISNYLNWYQQKPGKAPKVLIYFTSSLHSGVPSRFSGSGSGTDFTLTISSLQPEDFATYYCQQYSTVPWTFGQGTKVEIKR
Take B1: in assay [1], the ΔKD is 9.6 fold. For the same molecule, in assay [2], the equilibrium dissociation constant (Kd) (in general, the concentration at which binding is half-saturated) was found to be 0.204 nM; the off-rate constant (koff) – broadly, the first-order rate constant of dissociation – came out at 0.00016 s⁻¹; the on-rate (kon) (in general, the second-order rate constant of association) turned out to be 824000 M⁻¹ s⁻¹. The same molecule showed a Δkoff in assay [3] of 2.2 fold. This molecule also returned a Δkon in assay [4] of 4.6 fold.

B2: 86 (seventh row of Table 7) (antibody, human IgG1, V domains shown)
VH: EVQLVESGGGLVQPGGSLRLSCAASGYTFTFYGMNWVRQAPGKGLEWVGWINTYTGEPTYAADFKRRFTFSLDTSKSTAYLQMNSLRAEDTAVYYCAKYPHYDGGSHWYFDVWGQGTLVTVSS
VL: DIQMTQSPSSLSASVGDRVTITCSASQDISNYLNWYQQKPGKAPKVLIYFTSSLHSGVPSRFSGSGSGTDFTLTISSLQPEDFATYYCQQYSTVPWTFGQGTKVEIK
notes: defined here by its substitutions; copies: 2 + 2
Molecule B2 came in with a ΔKD in assay [1] of 7 fold. Further, in assay [2], the dissociation constant Kd is 0.282 nM, the koff is 0.000273 s⁻¹ and the kon came to 968000 M⁻¹ s⁻¹. In assay [3], this molecule showed a Δkoff of 1.3 fold. Moreover, the Δkon in assay [4] came out at 5.4 fold.

B3: 96 (antibody, human IgG1, V domains shown)
VH: EVQLVESGGGLVQPGGSLRLSCAASGYTFTFYGMNWVRQAPGKGLEWVGWINTYTGEPTYAADFKRRFTFSLDTSKSTAYLQMNSLRAEDTAVYYCAKYPPYYGGSHWYFDVWGQGTLVTVSS
VL: DIQMTQSPSSLSASVGDRVTITCSASQDISNYLNWYQQKPGKAPKVLIYFTSSLHSGVPSRFSGSGSGTDFTLTISSLQPEDFATYYCQQYSTVPWTFGQGTKVEIKR
Take B3: the ΔKD in assay [1] was found to be 1.1 fold. In assay [2], binding was characterised by a dissociation constant (Kd) of 1.75 nM, the koff worked out at 0.000379 s⁻¹ and the kon stood at 225000 M⁻¹ s⁻¹. Also, the Δkoff in assay [3] was 0.9 fold. Moreover, in assay [4], the Δkon was determined as 1.3 fold.

B4: 94 (antibody, human IgG1, V domains shown)
VH: EVQLVESGGGLVQPGGSLRLSCAASGYTFTFYGMNWVRQAPGKGLEWVGWINTYTGEPTYAADFKRRFTFSLDTSKSTAYLQMNSLRAEDTAVYYCAKYPHYYGGSHWYFDVWGQGTLVTVSS
VL: DIQMTQSPSSLSASVGDRVTITCSASQDISNYLNWYQQKPGKAPKVLIYFTSSLHSGVPSRFSGSGSGTDFTLTISSLQPEDFATYYCQQYSTVPWTFGQGTKVEIKR
In turn, B4 returned a ΔKD in assay [1] of 2.3 fold. In assay [2], this molecule displayed a Kd of 0.857 nM, a dissociation rate constant (koff) of 0.00022 s⁻¹ and a kon of 258000 M⁻¹ s⁻¹. Moreover, the Δkoff in assay [3] came out at 1.6 fold. The same molecule had a Δkon in assay [4] of 1.4 fold.

B5: 89 (antibody, human IgG1, V domains shown)
VH: EVQLVESGGGLVQPGGSLRLSCAASGYTFTFYGMNWVRQAPGKGLEWVGWINTYTGEPTYAADFKRRFTFSLDTSKSTAYLQMNSLRAEDTAVYYCAKYPPYDGSSHWYFDVWGQGTLVTVSS
VL: DIQMTQSPSSLSASVGDRVTITCSASQDISNYLNWYQQKPGKAPKVLIYFTSSLHSGVPSRFSGSGSGTDFTLTISSLQPEDFATYYCQQYSTVPWTFGQGTKVEIKR
B5: the ΔKD in assay [1] was 7 fold. Moreover, in assay [2], binding was characterised by a dissociation constant (Kd) of 0.282 nM, the koff came to 0.000249 s⁻¹ and the association rate constant (kon) was 904000 M⁻¹ s⁻¹. Further, in assay [3], the Δkoff is 1.4 fold. The same molecule gave a Δkon in assay [4] of 5 fold.

B6: 92 (antibody, human IgG1, V domains shown)
VH: EVQLVESGGGLVQPGGSLRLSCAASGYTFTNYGMNWVRQAPGKGLEWVGWINTYTGEPTYAADFKRRFTFSLDTSKSTAYLQMNSLRAEDTAVYYCAKYPPYYGSSHWYFDVWGQGTLVTVSS
VL: DIQMTQSPSSLSASVGDRVTITCSASQDISNYLNWYQQKPGKAPKVLIYFTSSLHSGVPSRFSGSGSGTDFTLTISSLQPEDFATYYCQQYSTVPWTFGQGTKVEIKR
Molecule B6 gave a ΔKD in assay [1] of 2.8 fold. In assay [2], this molecule yielded a Kd of 0.708 nM, an off-rate (koff) of 0.000256 s⁻¹ and an association rate constant (kon) of 367000 M⁻¹ s⁻¹. Also, the “ELISA 1hr binding” value in assay [5] amounted to 2.7 fold. The molecule also yielded a Δkoff in assay [3] of 1.4 fold. This molecule also came in with an ELISA o/n binding in assay [6] of 1 fold. The Δkon in assay [4] was determined as 2 fold. Moreover, the affinity improvement in assay [7] was found to be 0.8 fold. In assay [8], binding was put at a Kd of 0.522 nM, the koff came out at 0.00021 s⁻¹ and the on-rate (kon) was determined as 401000 M⁻¹ s⁻¹.

B7: 90 (antibody, human IgG1, V domains shown)
VH: EVQLVESGGGLVQPGGSLRLSCAASGYTFTFYGMNWVRQAPGKGLEWVGWINTYTGEPTYAADFKRRFTFSLDTSKSTAYLQMNSLRAEDTAVYYCAKYPDYYGSSHWYFDVWGQGTLVTVSS
VL: DIQMTQSPSSLSASVGDRVTITCSASQDISNYLNWYQQKPGKAPKVLIYFTSSLHSGVPSRFSGSGSGTDFTLTISSLQPEDFATYYCQQYSTVPWTFGQGTKVEIKR
In assay [1], B7 showed a ΔKD of 6.3 fold. In assay [2], this molecule displayed a Kd of 0.311 nM, an off-rate (koff) of 0.000197 s⁻¹ and an on-rate (kon) of 645000 M⁻¹ s⁻¹. In assay [3], this molecule came in with a Δkoff of 1.8 fold. Moreover, the Δkon in assay [4] was 3.6 fold.

B8: 91 (antibody, human IgG1, V domains shown)
VH: EVQLVESGGGLVQPGGSLRLSCAASGYTFTFYGMNWVRQAPGKGLEWVGWINTYTGEPTYAADFKRRFTFSLDTSKSTAYLQMNSLRAEDTAVYYCAKYPHYYGSSHWYFDVWGQGTLVTVSS
VL: DIQMTQSPSSLSASVGDRVTITCSASQDISNYLNWYQQKPGKAPKVLIYFTSSLHSGVPSRFSGSGSGTDFTLTISSLQPEDFATYYCQQYSTVPWTFGQGTKVEIKR
In assay [1], B8 yielded a ΔKD of 3.4 fold. In assay [2], this molecule had a Kd of 0.575 nM, a koff of 0.000121 s⁻¹ and an on-rate (kon) of 211000 M⁻¹ s⁻¹. Further, the “ELISA 1hr binding” value in assay [5] amounted to 0.7 fold. Further, the Δkoff in assay [3] was found to be 2.9 fold. The ELISA o/n binding in assay [6] was 0.3 fold. In assay [4], the Δkon was found to be 1.2 fold. The same molecule returned an affinity improvement in assay [7] of 4.7 fold. Further, in assay [8], the affinity, expressed as Kd, was 0.091 nM; the off-rate (koff) stood at 2.48e-05 s⁻¹; the on-rate constant (kon) stood at 272000 M⁻¹ s⁻¹.
